B1: CPEB3 Ribozyme (parent)
chain: UAACAGGGGGCCACAGCAGAAGCGUUCACGUCGCAGCCCCUGUCAGAUUCUGGUGAAUCUGCGAAUUCUGCUGUAUAUCUC

In this data set the parent is B1. Briefly: self-cleavage, relative activity (ratio to wild type); higher = more cleavage; in vitro, sequencing. In short, it runs like this: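 After error-prone PCR and barcoding, CPEB3 ribozyme mutant libraries were transcribed with T7 RNA polymerase at 37°C for 5 hours, then given 15 min with DNase I before an EDTA stop, and they cleaved during both steps. Reverse transcription with template switching preceded Illumina sequencing. Relative activity divides a variant's cleaved/total read fraction by the unmutated ribozyme's. At least 5 reads were required per variant, and three batches were averaged.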
As to A5U C81G, the self-cleavage worked out at 1.29.
Consider A5U C81A, for which the self-cleavage came out at 1.24.
In the case of A5U C81U, the self-cleavage was determined as 1.17.
With G6A A47U, the self-cleavage amounted to 0.32.
For the variant G6A A47G, the self-cleavage is 0.46.
In the case of A5G U72C, the self-cleavage worked out at 0.77.
Regarding A5G U72A, the self-cleavage was 0.48.
To A5G U72G belongs 0.79; to A5U G22A, 0.28; to G6A A28G, 0.29.
To G6A A28U belongs 0.4; to G6A A28C, 0.15.
Regarding A5U G10A, the self-cleavage worked out at 0.12.
To A5U G10C belongs 0.5.
On to A5U C59A, for which the self-cleavage is 0.43.
Turning to A5U C59G, the self-cleavage was found to be 0.37.
Turning to G6A U66C, the self-cleavage is 0.29.
As for A5U U74A, the figure is 1.24.
To A5U U74C belongs 1.14; to G6A G63A, 0.34.
On to A5U C40A, for which the self-cleavage stood at 0.09.
As for A5U C40U, the figure is 0.78.
As for G6A G7U, the self-cleavage was 0.07.
As for G6A G7A, the figure is 0.09; as for G6A C17A, 0.54; as for G6A C17U, 0.22.
Turning to A5U U41A, the self-cleavage is 0.33.
As for A5U U41C, the figure is 0.98.
Turning to G6A C40U, the self-cleavage was determined as 0.33.
As for G6A A13C, the figure is 0.4; as for G6A A13G, 0.35.
To G6A A13U belongs 0.28; to A5G U69G, 0.49; to A5G U69C, 0.37.
On to A5G U69A, for which the self-cleavage amounted to 0.49.
Regarding G6A C29U, the self-cleavage was determined as 0.08.
Regarding G6A C29A, the self-cleavage is 0.05.
As for A5U A28G, the figure is 0.83.
To A5U A28C belongs 0.77; to A5U A28U, 1.12; to A5G U25A, 0.42.
As for A5G U25C, the figure is 0.39.
With A5G U25G, the self-cleavage is 0.55.
As to A5G U58A, the self-cleavage came out at 0.24.
To A5G U58C belongs 0.43; to G6A G19U, 0.06.
With G6A G19A, the self-cleavage was 0.26.
With G6A G19C, the self-cleavage stood at 0.42.
Turning to G6A C34U, the self-cleavage is 0.15.
Turning to A5U G7A, the self-cleavage worked out at 0.22.
As to A5U G7U, the self-cleavage amounted to 0.35.
To A5U G7C belongs 0.48.
As for A5U G16U, the figure is 0.66.
In the case of A5U G16A, the self-cleavage was found to be 1.05.
With A5U G63A, the self-cleavage came to 1.06.
Consider A5U A47G, for which the self-cleavage is 0.95.
As for G6A C14U, the figure is 0.57.
To A5G U43A belongs 0.84; to A5G U43G, 0.3; to A5G U43C, 0.43.
Turning to A5U A45G, the self-cleavage is 1.02.
To A5U A45U belongs 0.54.
As for G6A A15C, the figure is 0.42; as for G6A A15G, 0.36.
As for G6A A15U, the self-cleavage was found to be 0.18.
To A5G G46U belongs 0.4; to A5G U49A, 0.53.
Regarding A5G U49C, the self-cleavage turned out to be 0.31.
A5U U26A: the self-cleavage came out at 1.05.
As for A5U U26C, the figure is 0.72.
With A5U A65U, the self-cleavage worked out at 0.28.
For A5U A65G, the self-cleavage was found to be 0.55.
In the case of G6A G73U, the self-cleavage stood at 0.89.
As to A5U G9A, the self-cleavage was 0.45.
Regarding A5U G9U, the self-cleavage stood at 0.34.
As for G6A A77U, the figure is 0.34; as for G6A A77C, 0.44; as for G6A A77G, 0.45.
Consider A5U C12U, for which the self-cleavage came out at 1.14.
As for A5G U67A, the figure is 0.39; as for A5G U67C, 0.34.
With G6A A75G, the self-cleavage came out at 0.27.
As for G6A A75U, the figure is 0.51; as for A5G U78C, 0.63.
To A5G U78G belongs 0.91; to A5G U78A, 0.88.
As for A5U, the figure is 1.04; as for A5U C79U, 1.24.
In the case of G6A C44U, the self-cleavage came out at 0.46.
For A5G G63A, the self-cleavage came to 0.61.
To A5G G63C belongs 0.5; to A5G G63U, 0.95; to G6A A18U, 0.23.
As for G6A A18G, the figure is 0.31; as for G6A A18C, 0.44.
To G6A G33U belongs 0.22; to G6A G33A, 0.29; to A5G U80C, 0.66.
For the variant A5G U80A, the self-cleavage is 0.79.
To A5U C37U belongs 0.82; to A5U A57G, 0.97.
To A5U A57U belongs 0.67.
As for A5U A57C, the self-cleavage turned out to be 0.7.
A5U U78A: the self-cleavage stood at 1.15.
As for A5U U78C, the figure is 0.93.
To G6A C32A belongs 0.26; to A5U A21C, 0.29; to A5U A21G, 0.77.
To A5U A21U belongs 0.53; to G6A U54A, 0.27; to G6A U54C, 0.52.
Regarding G6A U54G, the self-cleavage came out at 0.19.
To G6A U26A belongs 0.19; to G6A U26C, 0.2.
As for A5U A75G, the self-cleavage came out at 0.95.
As for G6A C12A, the self-cleavage came out at 0.39.
As for G6A C12U, the figure is 0.59; as for A5U C34U, 0.55.
To A5U C34A belongs 0.65.
Regarding G6A C37U, the self-cleavage was 0.2.
Consider A5U G61U, for which the self-cleavage was determined as 0.72.
As to G6A G9C, the self-cleavage was determined as 0.07.
To G6A G9A belongs 0.25; to G6A A65G, 0.16; to G6A A65U, 0.22.
As for G6A U43A, the figure is 0.49; as for G6A U43C, 0.19.
For the variant A5U G46A, the self-cleavage was 0.36.
As for A5U G53A, the figure is 1.14; as for A5U G24C, 0.36.
Consider A5U G24A, for which the self-cleavage came to 0.4.
As for A5U G24U, the figure is 0.43; as for G6A C59A, 0.15.
To A5U C32U belongs 0.31.
As to A5U C32A, the self-cleavage was determined as 0.32.
As for A5U C32G, the figure is 0.16.
For A5U C39U, the self-cleavage was found to be 0.95.
To A5U G36A belongs 0.39.
In the case of A5U C23G, the self-cleavage came out at 0.08.
For the variant A5U C23U, the self-cleavage came to 0.25.
To A5G G73U belongs 1.17; to A5G G73C, 1.25; to A5G G73A, 1.17.
A5G G52U: the self-cleavage came to 0.73.
As for A5G G52A, the figure is 1; as for A5G G53C, 0.8; as for A5G G53A, 0.88.
Take A5G G53U: the self-cleavage came to 1.03.
To G6A A57U belongs 0.29.
To G6A A57G belongs 0.34.
To G6A G55U belongs 0.4; to G6A U48C, 0.18.
G6A U72A: the self-cleavage was 0.2.
To G6A U72C belongs 0.4; to G6A C23A, 0.1; to G6A C23G, 0.35.
To G6A C23U belongs 0.12; to G6A U51A, 0.37.
To G6A U51C belongs 0.49; to G6A A21G, 0.49.
In the case of G6A A21U, the self-cleavage amounted to 0.31.
A5G U41G: the self-cleavage worked out at 0.28.
A5G U41C: the self-cleavage was found to be 0.5.
As for A5G U41A, the self-cleavage amounted to 0.32.
Turning to A5G U60A, the self-cleavage came to 0.31.
Consider A5G U60G, for which the self-cleavage amounted to 0.35.
A5G U60C: the self-cleavage was 0.36.

For the origin of these results see the RNAGym collection of RNA variant scans (doi:10.1093/nar/gkz1192).
